Reference: US20260167733A1 (CLEVELAND CLINIC FOUNDATION, published 2026)

T1: human AMHR2 on AMHR2-OVCAR8 cells (human, UniProt Q16671 18-573)
T1 construct: whole, on cells; Also the target in IHC of human HGSOC tumour tissue sections; also called AMHR2-ED on human EOC cells; anti-Mullerian hormone receptor type II
T1 sequence (looked up): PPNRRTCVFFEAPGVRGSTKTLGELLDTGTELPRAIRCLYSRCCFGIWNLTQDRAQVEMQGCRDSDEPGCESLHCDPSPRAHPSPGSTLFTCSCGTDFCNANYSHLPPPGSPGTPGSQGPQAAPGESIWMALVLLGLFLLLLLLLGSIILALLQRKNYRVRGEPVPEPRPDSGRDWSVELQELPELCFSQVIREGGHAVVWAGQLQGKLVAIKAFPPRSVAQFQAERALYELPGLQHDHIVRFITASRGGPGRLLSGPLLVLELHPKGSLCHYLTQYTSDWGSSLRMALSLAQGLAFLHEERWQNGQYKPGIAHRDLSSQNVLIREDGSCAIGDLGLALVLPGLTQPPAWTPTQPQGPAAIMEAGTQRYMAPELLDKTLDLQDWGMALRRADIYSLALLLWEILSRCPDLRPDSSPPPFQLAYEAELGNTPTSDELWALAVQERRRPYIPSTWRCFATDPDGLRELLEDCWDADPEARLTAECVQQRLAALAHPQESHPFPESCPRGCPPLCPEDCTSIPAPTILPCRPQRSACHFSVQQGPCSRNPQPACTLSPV


Biological target: T1, human AMHR2 on AMHR2-OVCAR8 cells
Test: flow cytometry on AMHR2-OVCAR8 cells
Description: The human AMHR2-OVCAR8 cells expressing high levels of human AMHR2 were treated with Fc-receptor block (BD Biosciences, San Jose, CA) and immunostained with 5 μg of a human isotype control IgG1 mAb as well as with 5 μg of the chimeric 4D12G1 mAb and variants 5 and 6 of the humanized 4D12G1 mAb. Cells were then treated with FITC-labeled goat anti-human IgG (BD Biosciences) and analyzed by flow cytometry using a FACSAria II flow cytometer and BDFacsDiva software (BD Biosciences). […] Insets show darkly staining regions of AMHR2-ED expression which occurs primarily in the parenchyma, with some staining also visible in the stroma.

binding result	Binder
binds	Anti-AMHR2-ED 4D12G1 Variant 5 antibody (antibody, human IgG1, kappa, Humanized variant of 4D12G1; also called humanized 4D12G1 variant 5 mAb; 4D12G1 variant 5 mAb) heavy: not shown light: DVVMTQTPLSSPVTLGQPASISCRSSQSLVHSNGNTYLHWYQQRPGQPPKLLIYKVSKRFSGVPDRFSGSGSGTDFTLKISRVEAEDVGVYFCSQSTHVYTFGQGTKLEIKRTVAAPSVFIFPPSDEQLKSGTASVVCLLNNFYPREAKVQWKVDNALQSGNSQESVTEQDSKDSTYSLSSTLTLSKADYEKHKVYACEVTHQGLSSPVTKSFNRGEC
binds	Anti-AMHR2-ED 4D12G1 Variant 6 antibody (antibody, human IgG1, kappa, Humanized variant of 4D12G1; also called humanized 4D12G1 variant 6 mAb; Hu4D12G1-6) heavy: not shown light: DVVMTQTPLSSPVTLGQPASISCRSSQSLVHSNGNTYLHWYQQRPGQPPKLLIYKVSKRFSGVPDRFSGSGSGTDFTLKISRVEAEDVGVYFCSQSTHVYTFGQGTKLEIKRTVAAPSVFIFPPSDEQLKSGTASVVCLLNNFYPREAKVQWKVDNALQSGNSQESVTEQDSKDSTYSLSSTLTLSKADYEKHKVYACEVTHQGLSSPVTKSFNRGEC
binds	Anti-AMHR2-ED 4D12G1 Chimeric antibody (antibody, human IgG1, kappa, V domains shown, also called chimeric 4D12G1 mAb; Chimeric 4D12G1) VH: DVKLVESGGGLVKLGGSLKLSCAASGFTFSRYFMSWVRQTPEKRLELVAAINSDGGRTYYPDTVKGRFTISRDNAKNTLYLQMSSLKSEDTALYYCTRHIYSYYEDYFDYWGQGTTLTVSS VL: DVVMTQTPLSLPVSLGDQASISCRSSQSLVHSNGNTYLHWYLQKPGQSPKLLIYKVSKRFSGVPDRFSGSGSGTDFTLKISRVEAEDLGVYFCSQSTHVYTFGGGTKLEIKR
